Experimental findings from patent US20180155451A1 (published 2018) are described below.

T1: FcγRIIa R (human FcγRIIa, allotype R, Arg at position 131), extracellular domain with C-terminal His tag (human, UniProt P12318 34-217)
T1 construct: extracellular domain; expressed in FreeStyle293 cells; analyte in Biacore; also called 2aR; FcgRIIa R
T1 sequence (looked up): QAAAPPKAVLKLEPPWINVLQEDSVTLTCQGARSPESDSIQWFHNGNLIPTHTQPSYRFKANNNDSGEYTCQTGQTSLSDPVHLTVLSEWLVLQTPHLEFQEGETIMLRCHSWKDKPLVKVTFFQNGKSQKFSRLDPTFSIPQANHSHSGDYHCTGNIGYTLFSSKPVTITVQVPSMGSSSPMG

B1: GpH7-A5/GpH7-B3 variant A327_12R/GpL16-k0 (antibody, human IgG1, kappa)
heavy 1: not shown
heavy 2: not shown
light: DIVMTQSPLSLPVTPGEPASISCQASESLVHSNRNTYLHWYLQKPGQSPQLLIYKVSNRFSGVPDRFSGSGSGTDFTLKISRVEAEDVGVYYCSQNTHVPPTFGQGTKVEIERTVAAPSVFIFPPSDEQLKSGTASVVCLLNNFYPREAKVQWKVDNALQSGNSQESVTEQDSKDSTYSLSSTLTLSKADYEKHKVYACEVTHQGLSSPVTKSFNRGEC
notes: heterodimerized IgG1, one H chain mutated; also called He Ab
B2: GpH7-A5/GpH7-B3 variant Y296_07I/GpL16-k0 (antibody, human IgG1, kappa)
heavy 1: not shown
heavy 2: not shown
light: DIVMTQSPLSLPVTPGEPASISCQASESLVHSNRNTYLHWYLQKPGQSPQLLIYKVSNRFSGVPDRFSGSGSGTDFTLKISRVEAEDVGVYYCSQNTHVPPTFGQGTKVEIERTVAAPSVFIFPPSDEQLKSGTASVVCLLNNFYPREAKVQWKVDNALQSGNSQESVTEQDSKDSTYSLSSTLTLSKADYEKHKVYACEVTHQGLSSPVTKSFNRGEC
notes: heterodimerized antibody, mutation in one H chain only; also called He Ab
B3: GpH7-A5/GpH7-B3 variant Y300_18N/GpL16-k0 (antibody, human IgG1, kappa)
heavy 1: not shown
heavy 2: not shown
light: DIVMTQSPLSLPVTPGEPASISCQASESLVHSNRNTYLHWYLQKPGQSPQLLIYKVSNRFSGVPDRFSGSGSGTDFTLKISRVEAEDVGVYYCSQNTHVPPTFGQGTKVEIERTVAAPSVFIFPPSDEQLKSGTASVVCLLNNFYPREAKVQWKVDNALQSGNSQESVTEQDSKDSTYSLSSTLTLSKADYEKHKVYACEVTHQGLSSPVTKSFNRGEC
notes: as for B2
B4: GpH7-A5/GpH7-B3 variant Y296_18N/GpL16-k0 (antibody, human IgG1, kappa)
heavy 1: not shown
heavy 2: not shown
light: DIVMTQSPLSLPVTPGEPASISCQASESLVHSNRNTYLHWYLQKPGQSPQLLIYKVSNRFSGVPDRFSGSGSGTDFTLKISRVEAEDVGVYYCSQNTHVPPTFGQGTKVEIERTVAAPSVFIFPPSDEQLKSGTASVVCLLNNFYPREAKVQWKVDNALQSGNSQESVTEQDSKDSTYSLSSTLTLSKADYEKHKVYACEVTHQGLSSPVTKSFNRGEC
notes: as for B2
B5: GpH7-A5/GpH7-B3 variant T335_20W/GpL16-k0 (antibody, human IgG1, kappa)
heavy 1: not shown
heavy 2: not shown
light: DIVMTQSPLSLPVTPGEPASISCQASESLVHSNRNTYLHWYLQKPGQSPQLLIYKVSNRFSGVPDRFSGSGSGTDFTLKISRVEAEDVGVYYCSQNTHVPPTFGQGTKVEIERTVAAPSVFIFPPSDEQLKSGTASVVCLLNNFYPREAKVQWKVDNALQSGNSQESVTEQDSKDSTYSLSSTLTLSKADYEKHKVYACEVTHQGLSSPVTKSFNRGEC
notes: as for B2
B6: GpH7-A5/GpH7-B3 variant Y296_13S/GpL16-k0 (antibody, human IgG1, kappa)
heavy 1: not shown
heavy 2: not shown
light: DIVMTQSPLSLPVTPGEPASISCQASESLVHSNRNTYLHWYLQKPGQSPQLLIYKVSNRFSGVPDRFSGSGSGTDFTLKISRVEAEDVGVYYCSQNTHVPPTFGQGTKVEIERTVAAPSVFIFPPSDEQLKSGTASVVCLLNNFYPREAKVQWKVDNALQSGNSQESVTEQDSKDSTYSLSSTLTLSKADYEKHKVYACEVTHQGLSSPVTKSFNRGEC
notes: as for B2
B7: GpH7-A5/GpH7-B3 variant Y296_20W/GpL16-k0 (antibody, human IgG1, kappa)
heavy 1: not shown
heavy 2: not shown
light: DIVMTQSPLSLPVTPGEPASISCQASESLVHSNRNTYLHWYLQKPGQSPQLLIYKVSNRFSGVPDRFSGSGSGTDFTLKISRVEAEDVGVYYCSQNTHVPPTFGQGTKVEIERTVAAPSVFIFPPSDEQLKSGTASVVCLLNNFYPREAKVQWKVDNALQSGNSQESVTEQDSKDSTYSLSSTLTLSKADYEKHKVYACEVTHQGLSSPVTKSFNRGEC
notes: as for B2
B8: GpH7-A5/GpH7-B3 variant T335_19Q/GpL16-k0 (antibody, human IgG1, kappa)
heavy 1: not shown
heavy 2: not shown
light: DIVMTQSPLSLPVTPGEPASISCQASESLVHSNRNTYLHWYLQKPGQSPQLLIYKVSNRFSGVPDRFSGSGSGTDFTLKISRVEAEDVGVYYCSQNTHVPPTFGQGTKVEIERTVAAPSVFIFPPSDEQLKSGTASVVCLLNNFYPREAKVQWKVDNALQSGNSQESVTEQDSKDSTYSLSSTLTLSKADYEKHKVYACEVTHQGLSSPVTKSFNRGEC
notes: as for B2
B9: GpH7-A5/GpH7-B3 variant Y296_16H/GpL16-k0 (antibody, human IgG1, kappa)
heavy 1: not shown
heavy 2: not shown
light: DIVMTQSPLSLPVTPGEPASISCQASESLVHSNRNTYLHWYLQKPGQSPQLLIYKVSNRFSGVPDRFSGSGSGTDFTLKISRVEAEDVGVYYCSQNTHVPPTFGQGTKVEIERTVAAPSVFIFPPSDEQLKSGTASVVCLLNNFYPREAKVQWKVDNALQSGNSQESVTEQDSKDSTYSLSSTLTLSKADYEKHKVYACEVTHQGLSSPVTKSFNRGEC
notes: as for B2
B10: GpH7-A5/GpH7-B3 variant Y296_04F/GpL16-k0 (antibody, human IgG1, kappa)
heavy 1: not shown
heavy 2: not shown
light: DIVMTQSPLSLPVTPGEPASISCQASESLVHSNRNTYLHWYLQKPGQSPQLLIYKVSNRFSGVPDRFSGSGSGTDFTLKISRVEAEDVGVYYCSQNTHVPPTFGQGTKVEIERTVAAPSVFIFPPSDEQLKSGTASVVCLLNNFYPREAKVQWKVDNALQSGNSQESVTEQDSKDSTYSLSSTLTLSKADYEKHKVYACEVTHQGLSSPVTKSFNRGEC
notes: as for B2
B11: GpH7-A5/GpH7-B3 variant T335_18N/GpL16-k0 (antibody, human IgG1, kappa)
heavy 1: not shown
heavy 2: not shown
light: DIVMTQSPLSLPVTPGEPASISCQASESLVHSNRNTYLHWYLQKPGQSPQLLIYKVSNRFSGVPDRFSGSGSGTDFTLKISRVEAEDVGVYYCSQNTHVPPTFGQGTKVEIERTVAAPSVFIFPPSDEQLKSGTASVVCLLNNFYPREAKVQWKVDNALQSGNSQESVTEQDSKDSTYSLSSTLTLSKADYEKHKVYACEVTHQGLSSPVTKSFNRGEC
notes: as for B2
B12: GpH7-A5/GpH7-B3 variant V266_06M/GpL16-k0 (antibody, human IgG1, kappa)
heavy 1: not shown
heavy 2: not shown
light: DIVMTQSPLSLPVTPGEPASISCQASESLVHSNRNTYLHWYLQKPGQSPQLLIYKVSNRFSGVPDRFSGSGSGTDFTLKISRVEAEDVGVYYCSQNTHVPPTFGQGTKVEIERTVAAPSVFIFPPSDEQLKSGTASVVCLLNNFYPREAKVQWKVDNALQSGNSQESVTEQDSKDSTYSLSSTLTLSKADYEKHKVYACEVTHQGLSSPVTKSFNRGEC
notes: as for B2
B13: GpH7-A5/GpH7-B3 variant Y296_19Q/GpL16-k0 (antibody, human IgG1, kappa)
heavy 1: not shown
heavy 2: not shown
light: DIVMTQSPLSLPVTPGEPASISCQASESLVHSNRNTYLHWYLQKPGQSPQLLIYKVSNRFSGVPDRFSGSGSGTDFTLKISRVEAEDVGVYYCSQNTHVPPTFGQGTKVEIERTVAAPSVFIFPPSDEQLKSGTASVVCLLNNFYPREAKVQWKVDNALQSGNSQESVTEQDSKDSTYSLSSTLTLSKADYEKHKVYACEVTHQGLSSPVTKSFNRGEC
notes: as for B2
B14: GpH7-A5/GpH7-B3 variant Y296_10E/GpL16-k0 (antibody, human IgG1, kappa)
heavy 1: not shown
heavy 2: not shown
light: DIVMTQSPLSLPVTPGEPASISCQASESLVHSNRNTYLHWYLQKPGQSPQLLIYKVSNRFSGVPDRFSGSGSGTDFTLKISRVEAEDVGVYYCSQNTHVPPTFGQGTKVEIERTVAAPSVFIFPPSDEQLKSGTASVVCLLNNFYPREAKVQWKVDNALQSGNSQESVTEQDSKDSTYSLSSTLTLSKADYEKHKVYACEVTHQGLSSPVTKSFNRGEC
notes: as for B2
B15: GpH7-A5/GpH7-B3 variant Y296_09D/GpL16-k0 (antibody, human IgG1, kappa)
heavy 1: not shown
heavy 2: not shown
light: DIVMTQSPLSLPVTPGEPASISCQASESLVHSNRNTYLHWYLQKPGQSPQLLIYKVSNRFSGVPDRFSGSGSGTDFTLKISRVEAEDVGVYYCSQNTHVPPTFGQGTKVEIERTVAAPSVFIFPPSDEQLKSGTASVVCLLNNFYPREAKVQWKVDNALQSGNSQESVTEQDSKDSTYSLSSTLTLSKADYEKHKVYACEVTHQGLSSPVTKSFNRGEC
notes: as for B2
B16: GpH7-A5/GpH7-B3 variant Y296_06M/GpL16-k0 (antibody, human IgG1, kappa)
heavy 1: not shown
heavy 2: not shown
light: DIVMTQSPLSLPVTPGEPASISCQASESLVHSNRNTYLHWYLQKPGQSPQLLIYKVSNRFSGVPDRFSGSGSGTDFTLKISRVEAEDVGVYYCSQNTHVPPTFGQGTKVEIERTVAAPSVFIFPPSDEQLKSGTASVVCLLNNFYPREAKVQWKVDNALQSGNSQESVTEQDSKDSTYSLSSTLTLSKADYEKHKVYACEVTHQGLSSPVTKSFNRGEC
notes: as for B2
B17: GpH7-A5/GpH7-B3 variant Y296_14T/GpL16-k0 (antibody, human IgG1, kappa)
heavy 1: not shown
heavy 2: not shown
light: DIVMTQSPLSLPVTPGEPASISCQASESLVHSNRNTYLHWYLQKPGQSPQLLIYKVSNRFSGVPDRFSGSGSGTDFTLKISRVEAEDVGVYYCSQNTHVPPTFGQGTKVEIERTVAAPSVFIFPPSDEQLKSGTASVVCLLNNFYPREAKVQWKVDNALQSGNSQESVTEQDSKDSTYSLSSTLTLSKADYEKHKVYACEVTHQGLSSPVTKSFNRGEC
notes: as for B2

The target of the first experiment is T2, FcγRIa (human, UniProt P12314 16-292).
T2 construct: extracellular domain; also called FcgRI; FcgRIa
T2 sequence (P12314 16-292): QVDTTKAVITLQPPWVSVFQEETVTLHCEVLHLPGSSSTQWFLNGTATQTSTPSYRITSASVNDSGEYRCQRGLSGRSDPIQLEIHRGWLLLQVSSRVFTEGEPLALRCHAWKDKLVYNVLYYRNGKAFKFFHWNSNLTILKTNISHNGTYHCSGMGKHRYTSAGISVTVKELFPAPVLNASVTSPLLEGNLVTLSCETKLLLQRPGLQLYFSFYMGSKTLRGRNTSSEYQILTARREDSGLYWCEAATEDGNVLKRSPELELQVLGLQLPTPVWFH
Kind of experiment: SPR (Biacore); He/Con_1a (FcgRIa) divided by He/Con_2b (FcgRIIb). How it is done: (§1) The heterodimerized antibodies He Abs in which one of the H chains was introduced with an alteration were assayed for their binding activities to each activating FcγR and inhibitory FcγR according to the method described in Example 4. […] The activating FcγRs in FIGS. 26, 27, 28, and 29 are FcγRIa, FcγRIIa (R), FcγRIIa (H), and FcγRIIIa, respectively.
(§2) Analysis of interaction between objective antibody and the FcγR was carried out using Biacore T100 (GE Healthcare). HBS-EP+ (GE Healthcare) was used as the running buffer, and the measurement temperature was set to 25° C. Chips produced by immobilizing the antigen peptide by the amine coupling method to a Series S Sencor Chip CM5 (GE Healthcare), or alternatively, chips produced by allowing preliminarily biotinylated antigen peptides to interact with and immobilize onto a Series S Sensor Chip SA (certified) (GE Healthcare) were used. Antibodies of interest were captured onto an antigen peptide-immobilized chip, and allowed to interact to each FcγR diluted with running buffer. To regenerate and repeatedly use the chip, the antibodies captured on the chip were washed off by reacting 10 mM glycine-HCl, pH 1.5.
On the technique in general: SPR reads the build-up and loss of mass on a sensor chip optically.
Take B1: the “Ia/IIb He_1a/2b” value was 9.64.

For the next experiment, the target named is T1, FcγRIIa R (human FcγRIIa, allotype R, …). Briefly: SPR (Biacore), relative binding vs GpH7-A5/GpH7-B3/GpL16-k0. As for the experimental part:
as §2
The FcγR-binding activity of each antibody was assessed primarily using as an indicator the FcγR-binding activity and dissociation constant for FcγR.
On to B2, for which the He/Con_2aR was 101 relative, control = 100.
B3: the He/Con_2aR is 100 relative, control = 100.
Still for that read-out and setting: under B4 stands 104 relative, control = 100; under B5, 109 relative, control = 100.
Regarding B6, the He/Con_2aR was 102 relative, control = 100.
With B7, the He/Con_2aR is 110 relative, control = 100.
On the same count and under the same terms, under B8 stands 106 relative, control = 100.
Same read-out and setting: under B9 stands 105 relative, control = 100.
The same measure, in the same setting: under B10 stands 109 relative, control = 100.
For the molecule B11, the He/Con_2aR was 106 relative, control = 100.
Same read-out and setting: under B12 stands 150 relative, control = 100.
Consider B13, for which the He/Con_2aR is 102 relative, control = 100.
In the case of B14, the He/Con_2aR was 103 relative, control = 100.
Consider B15, for which the He/Con_2aR is 106 relative, control = 100.
The same measure, in the same setting: under B16 stands 101 relative, control = 100; under B17, 103 relative, control = 100.

In another experiment the target is T2, FcγRIa. Briefly: SPR (Biacore), relative to GpH7-A5/GpH7-B3/GpL16-k0 = 100. As for the experimental part: as §1, §2
For the molecule B1, the “He/Con_1a (Ia binding)” value is 86.7 relative (control = 100).
